A word on the Kd: it is the free concentration of one partner at which half of the binding sites on the other are occupied at equilibrium, for simple one-to-one binding. A high value points to lower affinity. What is called IC50 is the point on the concentration scale where inhibition reaches its midpoint. A high value points to weaker potency.

Test [1] addresses T1, dimeric hIL-4R-hFc (human, UniProt P24394 26-232).
T1 construct: also called hIL-4R-Fc; not shown: human Fc (hFc)
T1 sequence: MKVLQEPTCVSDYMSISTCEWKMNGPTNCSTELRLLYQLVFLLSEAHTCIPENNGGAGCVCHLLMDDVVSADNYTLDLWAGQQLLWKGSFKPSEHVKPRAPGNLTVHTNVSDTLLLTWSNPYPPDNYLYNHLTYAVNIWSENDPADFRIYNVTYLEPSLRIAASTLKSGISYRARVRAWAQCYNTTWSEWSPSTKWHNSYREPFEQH
The test is described as follows: SPR (BIAcore 2000); antibody captured, dimeric hIL-4R-hFc injected. The protocol:
(§1) Binding affinity (KD) of selected antibodies with respect to hIL-4R was determined using a real-time biosensor surface plasmon resonance assay (BIAcore™ 2000). Briefly, antibody was captured on a goat anti-mouse (GAM) IgG polyclonal antibody surface created through direct chemical coupling of the GAM IgG to a BIAcore™ chip to form a captured antibody surface. […] Binding of antigen to antibody and dissociation of the bound complex, were monitored in real time. Equilibrium dissociation constants (KD) and dissociation rate constants were ascertained by performing kinetic analysis using BIA evaluation software. BIA evaluation software was also used to calculate the half-life of antigen/antibody complex dissociation (T_{1/2}). […] The binding affinity of anti-hIL-4R antibodies to either mouse or monkey (Macaca fascicularis) IL-4R was also tested.
A general note: In SPR one partner is held on a chip, and binding of the other changes the refractive index at the surface.

Test [2] addresses T2, monomeric hIL-4R (R&D Systems) (human, UniProt P24394 26-231).
T2 construct: Bought (R&D Systems); also called hIL-4R monomer
T2 sequence: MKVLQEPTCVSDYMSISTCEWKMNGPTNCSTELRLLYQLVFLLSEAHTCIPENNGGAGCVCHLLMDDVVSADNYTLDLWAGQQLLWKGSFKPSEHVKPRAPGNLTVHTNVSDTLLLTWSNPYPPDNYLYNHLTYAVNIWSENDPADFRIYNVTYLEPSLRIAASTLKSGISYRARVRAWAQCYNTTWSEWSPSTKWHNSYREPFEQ
The test is described as follows: SPR (BIAcore 2000); antibody captured, monomeric hIL-4R injected. The procedure: as §1

The target of test [3] is T3, mouse IL-4R (mouse, UniProt P16382 26-233, limits assumed).
T3 sequence (looked up): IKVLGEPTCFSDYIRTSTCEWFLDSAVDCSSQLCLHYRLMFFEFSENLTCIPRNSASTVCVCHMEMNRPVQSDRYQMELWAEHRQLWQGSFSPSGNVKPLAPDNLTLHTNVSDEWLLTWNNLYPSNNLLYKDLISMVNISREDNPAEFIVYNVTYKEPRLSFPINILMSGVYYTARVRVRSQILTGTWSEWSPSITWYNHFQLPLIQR
The test is described as follows: binding affinity test of Example 2 (method not restated).

The target in test [4] is T1, dimeric hIL-4R-hFc. Nature of the test: ELISA; antibody titrated against 25 pM hIL-4R-Fc, free receptor caught on hIL-4 plate. The protocol:
Concentration of free hIL-4R-Fc (no antibody bound) was determined using a hIL-4R-specific sandwich ELISA. […] After a one-hour incubation at room temperature, the detection plate was washed and plate-bound hIL-4R-hFc was detected using HRP conjugated goat anti-hFc polyclonal antibodies and developed using colorimetric substrates such as BD OptEIA™ (BD Biosciences Pharmingen, San Diego, Calif.). After the reaction was stopped with 1 M phosphoric or sulfuric acid, absorbances at 450 nm were recorded and the data were analyzed using GraphPad™ Prism software.

Test [5] deals with T4, hIL-4R on cells (STAT6-transfected HEK293, TF1, TF1/A12) (human, UniProt P24394 26-825).
T4 sequence (looked up): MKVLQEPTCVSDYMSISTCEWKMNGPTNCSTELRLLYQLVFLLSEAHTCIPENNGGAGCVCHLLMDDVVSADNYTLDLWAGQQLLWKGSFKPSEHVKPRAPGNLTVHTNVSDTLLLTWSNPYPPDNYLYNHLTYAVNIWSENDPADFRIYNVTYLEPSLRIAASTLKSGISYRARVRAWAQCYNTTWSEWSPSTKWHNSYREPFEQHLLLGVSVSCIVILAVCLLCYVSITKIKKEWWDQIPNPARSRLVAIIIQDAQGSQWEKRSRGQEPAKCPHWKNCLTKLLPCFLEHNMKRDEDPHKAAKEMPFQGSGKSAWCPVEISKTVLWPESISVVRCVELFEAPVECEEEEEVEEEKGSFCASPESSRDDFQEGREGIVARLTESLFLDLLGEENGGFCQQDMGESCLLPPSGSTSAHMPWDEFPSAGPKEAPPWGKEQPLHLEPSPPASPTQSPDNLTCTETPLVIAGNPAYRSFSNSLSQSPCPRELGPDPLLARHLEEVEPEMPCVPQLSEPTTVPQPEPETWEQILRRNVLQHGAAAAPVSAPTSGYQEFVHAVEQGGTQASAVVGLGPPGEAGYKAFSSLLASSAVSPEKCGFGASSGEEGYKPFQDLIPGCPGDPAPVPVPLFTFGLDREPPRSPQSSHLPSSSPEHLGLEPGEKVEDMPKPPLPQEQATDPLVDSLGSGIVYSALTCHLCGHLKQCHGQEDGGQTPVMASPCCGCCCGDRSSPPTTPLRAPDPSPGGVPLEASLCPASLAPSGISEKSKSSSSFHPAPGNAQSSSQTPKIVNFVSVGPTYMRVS
The test is described as follows: cell-based or functional assay.

Test [6] addresses T4, hIL-4R on cells (STAT6-transfected …). Nature of the test: cell-based or functional assay. The source holds these as a separate data set.
The target in test [7] is T1, dimeric hIL-4R-hFc. The test is described as follows: SPR; reduction of hIL-4 (50 nM) binding to captured hIL-4R-hFc after antibody; competitor hIL-4. An excerpt:
Purified hIL-4R-hFc molecules were captured by goat anti-human IgG polyclonal antibody immobilized on CM-5 to a density of 260 RU, to prepare a receptor-coated surface.

B1: VAB 1H1-2 (antibody, V domains shown)
VH: QVQLVQSGAEVKKPGASVKVSCKASGYTFTSYGISWVRQAPGQGLEWMGWISVYNGNTNYAQKLQGRVTMTTDTSTSTAYMDLRSLRSDDAAVYYCARGSGYDFDYWGQGTLVTVSS
VL: AIQMTQSPSSLSASVGDRVTITCRASQGIRNALGWYQQKPGKAPKLLIYAASSLQSGVPSRFSGSGSGTDFTLTISSLQSEDFATYYCLQDYNYPYTFGQGTKLEIK
notes: Apparently tested with mouse constant region (anti-mouse IgG capture/detection)
In test [1], B1 showed a Kd of 0.139 nM and a T1/2 dimeric of 8.2 h. In test [2], this molecule yielded a Kd of 34.9 nM and a T1/2 monomeric of 0.133 h. Besides, the binding result in test [3] is “no binding”. Further, the IC50 in test [4] was 0.146 nM. In addition, in test [5], the “STAT6 Bioassay IC50 (HEK293 STAT6 luciferase, 10 pM hIL-4)” value is > 10 nM and the “TF1/A12 Bioassay IC50 (proliferation, 20 pM hIL-4)” value (“TF1/A12 Bioassay IC50” below) is > 50 nM. The “STAT6 Bioassay IC50 (HEK293 STAT6 luciferase, 40 pM hIL-13)” value in test [6] was > 10 nM. For the same molecule, in test [7], the “% Inhibition (BIAcore)” value is 78%.

B2: VAB 6C10-14 (antibody, V domains shown)
VH: QVQLVQSGAEVKKPGASVKVSCKASGYTFTNYGLTWVRQAPGRGLEWMGWISVYNGNTNYAQTLKGRVTMTTDTSTSTAYMELKSLRSDDTAVYYCARGSGYDFDYWGQGTLVTVSS
VL: AIQMTQSPSSLSASVGDRVAITCRASQDIRNDLGWYQQKPGKAPKLLIHTASSLQSGVPSRFSGSGSGTDFTLTISNLQPEDFATYYCLQDNSYPYTFGQGTKLEIN
notes: as for B1
As for B2, in test [1], binding was characterised by a dissociation constant (Kd) of 0.286 nM and the T1/2 dimeric stood at 6.2 h. In test [2], this molecule showed a Kd of 1.77 nM and a T1/2 monomeric of 1.22 h. In addition, the binding result in test [3] is on record as “no binding”. In test [4], half-maximal inhibition (IC50) was put at 0.441 nM. Besides, in test [5], the “STAT6 Bioassay IC50 (HEK293 STAT6 luciferase, 10 pM hIL-4)” value is > 10 nM and the “TF1/A12 Bioassay IC50” value came out at 23 nM. For the same molecule, the “STAT6 Bioassay IC50 (HEK293 STAT6 luciferase, 40 pM hIL-13)” value in test [6] is > 10 nM. Besides, the “% Inhibition (BIAcore)” value in test [7] amounted to 79%.

B3: VAB 4D5-3 (antibody, V domains shown)
VH: QVQLVQSGPEVKKPGASVKVSCKASGYTFTNYGISWVRQAPGQGLEWMGWISVYNGKTNYAQKFQGRVTMTTDTSTSTAYMDLRSLRSDDTAVYYCARGSGYDFDYWGQGTLVTVSS
VL: AIQMTQSPSSLSASVGDRVTITCRASQGIRNALGWYQQKPGKAPKLLIFASSSLQSGVPSRFSGSGSGTDFTLTIRSLQPEDFAAYYCLQDYNYPYTFGQGTKLEIK
notes: as for B1
In test [1], B3 returned a Kd of 0.032 nM and a T1/2 dimeric of 20.4 h. In addition, in test [2], the Kd came out at 2.02 nM and the T1/2 monomeric turned out to be 0.583 h. Also, the binding result in test [3] is given as “no binding”. In test [4], this molecule displayed an IC50 of 0.24 nM. In addition, in test [5], the “STAT6 Bioassay IC50 (HEK293 STAT6 luciferase, 10 pM hIL-4)” value is 3.8 nM and the “TF1/A12 Bioassay IC50” value was 21 nM. The “STAT6 Bioassay IC50 (HEK293 STAT6 luciferase, 40 pM hIL-13)” value in test [6] stood at 3.3 nM. In test [7], the “% Inhibition (BIAcore)” value came out at 82%.

B4: VX 4E7-9 (antibody, V domains shown)
VH: QVQLVQSGAEVKKPGASVKVSCKASGYTFTNYGISWVRQAPGQGLEWMGWISVYNGKTNYAQKLQGRVTMTTDTSTTTAYMEMRSLRSDDTAVYYCARGSGYDLDYWGQGTLVSVSS
VL: AIQMTQSPSSLSASVGDRVTITCRASQGIRNALGWYQQKPGKAPKLLIYAASSLQSGVPSRFSGSGSGTDFTLTFSSLQPEDFATYYCLQDFNYPYTFGQGTKLEIK
notes: 387/389; Apparently tested with mouse constant region (anti-mouse IgG capture/detection)
In test [1], B4 showed a Kd of 0.111 nM and a T1/2 dimeric of 19.1 h. Further, in test [2], the Kd is 1.43 nM and the T1/2 monomeric is 0.8 h. The binding result in test [3] was “no binding”. In test [4], this molecule displayed an IC50 of 0.118 nM. Moreover, in test [5], the “STAT6 Bioassay IC50 (HEK293 STAT6 luciferase, 10 pM hIL-4)” value stood at 7.9 nM and the “TF1/A12 Bioassay IC50” value is 10 nM. Besides, the “STAT6 Bioassay IC50 (HEK293 STAT6 luciferase, 40 pM hIL-13)” value in test [6] turned out to be 6.3 nM. In addition, the “% Inhibition (BIAcore)” value in test [7] was determined as 79%.

B5: VAB 11G8-1 (antibody, V domains shown)
VH: QVQLVQSGAEVKKPGASVKVSCKASGYTFTNYGISWVRQAPGQGLEWMGWISVYNGHTNYAQKLQGRVTMTTDTSTSTAYMELRSLRSDDTAVYYCARGSGYDFDSWGQGTLVTVSS
VL: AIQMTQSSSSLSASVGDRVTITCRASQAIRNALGWYQQKPGKAPKVLIYAASSLQSGIPSRFSGSGSGTDFTLTISSLQPEDFATYYCLQDYDYPYTFGQGTKLEIK
notes: as for B1
In test [1], B5 registered a Kd of 0.108 nM and a T1/2 dimeric of 8.7 h. Further, in test [2], the Kd is 1.63 nM and the T1/2 monomeric was 0.417 h. Also, in test [3], the binding result was “no binding”. Further, in test [4], the IC50 amounted to 0.24 nM. For the same molecule, in test [5], the “STAT6 Bioassay IC50 (HEK293 STAT6 luciferase, 10 pM hIL-4)” value was > 10 nM and the “TF1/A12 Bioassay IC50” value was > 50 nM. For the same molecule, in test [6], the “STAT6 Bioassay IC50 (HEK293 STAT6 luciferase, 40 pM hIL-13)” value worked out at 8.8 nM. Moreover, the “% Inhibition (BIAcore)” value in test [7] is 77%.

B6: VAB 8G10-1 (antibody, V domains shown)
VH: QVQLVQSGPEVKKPGASVKVSCKASGYTFTNYGISWVRQAPGQGLEWMGWISVYNGNINYAQKLQGRVTMTTDTSTSTAYMDLRSLRSDDTAVYYCARGSGYDFDYWGQGTLVTVSS
VL: AIQMTQSPSSLSASVGDRVTITCRASQDIRNALGWYQQKPGKAPKLLIYAASSLQSGVPSRFSGSASGTDFTLTISSLQPEDFAAYYCLQDYNYPYTFGQGTKLEIK
notes: as for B1
Take B6: in test [1], the dissociation constant Kd was 5.51 nM and the T1/2 dimeric was found to be 4.1 h. In addition, in test [2], binding was characterised by a dissociation constant (Kd) of 7.71 nM and the T1/2 monomeric came out at 0.467 h. In test [3], the binding result is recorded as “no binding”. Further, the IC50 in test [4] was found to be 0.244 nM. Also, in test [5], the “STAT6 Bioassay IC50 (HEK293 STAT6 luciferase, 10 pM hIL-4)” value is > 10 nM and the “TF1/A12 Bioassay IC50” value is > 50 nM. In addition, the “STAT6 Bioassay IC50 (HEK293 STAT6 luciferase, 40 pM hIL-13)” value in test [6] was > 10 nM. The “% Inhibition (BIAcore)” value in test [7] is 74%.

Values taken from patent US20080160035A1 (Regeneron, published 2008).
